Literature values in patent US20050220810A1, “Anti-aging preparation” (Shiseido Company, Ltd., priority 2002, published 2005).

Tested on: vascular endothelial cell HMVEC
Settings: general statement on positive controls of TSP-1 induction; no test described

B1: TPA: tissue plasminogen activator, a positive control of the TSP-1 inducing substance (protein, UniProt P00750 36-562, looked up)
Tissue-type plasminogen …: SYQVICRDEKTQMIYQQHQSWLRPVLRSNRVEYCWCNSGRAQCHSVPVKSCSEPRCFNGGTCQQALYFSDFVCQCPEGFAGKCCEIDTRATCYEDQGISYRGTWSTAESGAECTNWNSSALAQKPYSGRRPDAIRLGLGNHNYCRNPDRDSKPWCYVFKAGKYSSEFCSTPACSEGNSDCYFGNGSAYRGTHSLTESGASCLPWNSMILIGKVYTAQNPSAQALGLGKHNYCRNPDGDAKPWCHVLKNRRLTWEYCDVPSCSTCGLRQYSQPQFRIKGGLFADIASHPWQAAIFAKHRRSPGERFLCGGILISSCWILSAAHCFQERFPPHHLTVILGRTYRVVPGEEEQKFEVEKYIVHKEFDDDTYDNDIALLQLKSDSSRCAQESSVVRTVCLPPADLQLPDWTECELSGYGKHEALSPFYSERLKEAHVRLYPSSRCTSQHLLNRTVTDNMLCAGDTRSGGPQANLHDACQGDSGGPLVCLNDGRMTLVGIISWGLGCGQKDVPGVYTKVTNYLDWIRDNMRP
induction of cell death in vascular endothelial cells: does not induce cell death
